Measurements from paper PMC6451106.
Where two headings read alike, the source gives them in different places.

B1: SRP72 (natural protein)
chain: MASGGSGGVSVPALWSEVNRYGQNGDFTRALKTVNKILQINKDDVTALHCKVVCLIQNGSFKEALNVINTHTKVLANNSLSFEKAYCEYRLNRIENALKTIESANQQTDKLKELYGQVLYRLERYDECLAVYRDLVRNSQDDYDEERKTNLSAVVAAQSNWEKVVPENLGLQEGTHELCYNTACALIGQGQLNQAMKILQKAEDLCRRSLSEDTDGTEEDPQAELAIIHGQMAYILQLQGRTEEALQLYNQIIKLKPTDVGLLAVIANNIITINKDQNVFDSKKKVKLTNAEGVEFKLSKKQLQAIEFNKALLAMYTNQAEQCRKISASLQSQSPEHLLPVLIQAAQLCREKQHTKAIELLQEFSDQHPENAAEIKLTMAQLKISQGNISKACLILRSIEELKHKPGMVSALVTMYSHEEDIDSAIEVFTQAIQWYQNHQPKSPAHLSLIREAANFKLKYGRKKEAISDLQQLWKQNPKDIHTLAQLISAYSLVDPEKAKALSKHLPSSDSMSLKVDVEALENSAGATYIRKKGGKVTGDSQPKEQGQGDLKKKKKKKKGKLPKNYDPKVTPDPERWLPMRERSYYRGRKKGKKKDQIGKGTQGATAGASSELDASKTVSSPPTSPRPGSAATVSASTSNIIPPRHQKPAGAPATKKKQQQKKKKGGKGGW
B2: SRP68/72 complete heterodimer (complex)
chain 1: MAAEKQVPGGGGGGGSGGGGGSGGGGSGGGRGAGGEENKENERPSAGSKANKEFGDSLSLEILQIIKESQQQHGLRHGDFQRYRGYCSRRQRRLRKTLNFKMGNRHKFTGKKVTEELLTDNRYLLLVLMDAERAWSYAMQLKQEANTEPRKRFHLLSRLRKAVKHAEELERLCESNRVDAKTKLEAQAYTAYLSGMLRFEHQEWKAAIEAFNKCKTIYEKLASAFTEEQAVLYNQRVEEISPNIRYCAYNIGDQSAINELMQMRLRSGGTEGLLAEKLEALITQTRAKQAATMSEVEWRGRTVPVKIDKVRIFLLGLADNEAAIVQAESEETKERLFESMLSECRDAIQVVREELKPDQKQRDYILEGEPGKVSNLQYLHSYLTYIKLSTAIKRNENMAKGLQRALLQQQPEDDSKRSPRPQDLIRLYDIILQNLVELLQLPGLEEDKAFQKEIGLKTLVFKAYRCFFIAQSYVLVKKWSEALVLYDRVLKYANEVNSDAGAFKNSLKDLPDVQELITQVRSEKCSLQAAAILDANDAHQTETSSSQVKDNKPLVERFETFCLDPSLVTKQANLVHFPPGFQPIPCKPLFFDLALNHVAFPPLEDKLEQKTKSGLTGYIKGIFGFRS
chain 2: B1 chain
B3: Chloroplast SRP54 from Arabidopsis thaliana (natural protein)
chain: EMFGQLTGGLEAAWSKLKGEEVLTKDNIAEPMRDIRRALLEADVSLPVVRRFVQSVSDQAVGMGVIRGVKPDQQLVKIVHDELVKLMGGEVSELQFAKSGPTVILLAGLQGVGKTTVCAKLACYLKKQGKSCMLIAGDVYRPAAIDQLVILGEQVGVPVYTAGTDVKPADIAKQGLKEAKKNNVDVVIMDTAGRLQIDKGMMDELKDVKKFLNPTEVLLVVDAMTGQEAAALVTTFNVEIGITGAILTKLDGDSRGGAALSVKEVSGKPIKLVGRGERMEDLEPFYPDRMAGRILGMGDVLSFVEKATEVMRQEDAEDLQKKIMSAKFDFNDFLKQTRAVAKMGSMTRVLGMIPGMGKVSPAQIREAEKNLLVMEAMIEVMTPEERERPELLAESPERRKRIAKDSGKTEQQVSALVAQIFQMRVKMKNLMGVMEGGSIPALSGLEDALKAEQKAPPGTARRKRKADSRKKFVESASSKPGPRGFGSGN
B4: Ffh from E. coli (natural protein)
chain: MFDNLTDRLSRTLRNISGRGRLTEDNVKDTLREVRMALLEADVALPVVREFINRVKEKAVGHEVNKSLTPGQEFVKIVRNELVAAMGEENQTLNLAAQPPAVVLMAGLQGAGKTTSVGKLGKFLREKHKKKVLVVSADVYRPAAIKQLETLAEQVGVDFFPSDVGQKPVDIVNAALKEAKLKFYDVLLVDTAGRLHVDEAMMDEIKQVHASINPVETLFVVDAMTGQDAANTAKAFNEALPLTGVVLTKVDGDARGGAALSIRHITGKPIKFLGVGEKTEALEPFHPDRIASRILGMGDVLSLIEDIESKVDRAQAEKLASKLKKGDGFDLNDFLEQLRQMKNMGGMASLMGKLPGMGQIPDNVKSQMDDKVLVRMEAIINSMTMKERAKPEIIKGSRKRRIAAGCGMQVQDVNRLLKQFDDMQRMMKKMKKGGMAKMMRSMKGMMPPGFPGR

How the values were obtained:
Assay in all cases: MST
[1] = target: human 80S ribosome (non-translating, Puromycin-treated monosomes) (human (endogenous in HeLa))
[2] = target: rabbit reticulocyte ribosome-nascent chain complexes exposing an SRP-targeting signal (rabbit | not stated)
[3] = target: human 80S ribosome (non-translating, Puromycin-treated monosomes) (human (endogenous in HeLa)); remark: listed apart in the source

Row | Molecule | Kd [1] [nM] | further results
1 | complete SRPS with SRP54ΔC (SRPS RNA, SRP19, SRP68/72 and SRP54ΔC) (from UniProt P09132;Q9UHB9;O76094;P61011) (complex) | < 4.7 | –
2 | entire human SRP (native 7SL RNA and all six SRP proteins) (from UniProt P49458;P37108;P09132;Q9UHB9;O76094;P61011) (complex) | – | concentration of saturation [1]: < 2.2 nM
3 | SRP68/72ΔC (SRP68/72 heterodimer with the C-terminus of SRP72 truncated) (from UniProt Q9UHB9;O76094) (complex) | 420 | –
4 | SRPS/SR complex with SRP54 (without signal sequence) (from UniProt P09132;Q9UHB9;O76094;P61011;P08240;Q9Y5M8) | < 1.4 | –
5 | SRαβ heterodimer (SRP receptor; full-length SRα with SRβ lacking its N-terminal TMD) (from UniProt P08240;Q9Y5M8) (complex) | 410 | –
6 | SRPS/SR complex with SRP54ss (signal sequence fused to SRP54) (from UniProt P09132;Q9UHB9;O76094;P61011;P08240;Q9Y5M8) | < 2 | –
7 | SRαΔRBR/SRβ (from UniProt P08240;Q9Y5M8) (complex) | > 7500 | –
8 | SRP72-RBD+C (C-terminal region of SRP72 including the RBD) (domain or fragment) | 920 | –
9 | quaternary SRPS complex with the truncated SRP68/72–RBD constructs (RNA/SRP19/SRP68-RBD/SRP72-RBD in (from UniProt P09132 1-144) | 1650 | –
10 | SRPS/SR complex with SRP54ΔC (without signal sequence) (from UniProt P09132;Q9UHB9;O76094;P61011;P08240;Q9Y5M8) | < 1.2 | –
11 | quaternary SRPS complex with the SRP68/72 heterodimer without the SRP72 C-terminus (RNA/SRP19/SRP68/72ΔC) (from UniProt P09132;Q9UHB9;O76094) | 370 | –
12 | SRP54NG (domain or fragment) | 1650 | –
13 | ternary SRPS complex (SRP RNA/SRP19/54) with full-length SRP54 (from UniProt P09132;P61011) | < 4.7 | stoichiometry N [1]: 1
14 | complete SRPS (SRP S domain: SRPS RNA, SRP19, SRP68/72 and full-length SRP54) (from UniProt P09132;Q9UHB9;O76094;P61011) (complex) | < 4.7 | –
15 | SRP54ΔC (domain or fragment) | 200 | KD1 (two-site fit, PALMIST) [1]: < 100 nM; KD of the first (high-affinity) binding event [1]: 100 nM
16 | entire recombinant SRPS/SR system as measured with RNCs (from UniProt P09132;Q9UHB9;O76094;P61011;P08240;Q9Y5M8) (complex) | – | Kd [2]: < 0.9 nM
17 | SRP54MΔC (domain or fragment) | 100 | –
18 | B1 | – | EC50 [3]: 520 nM; Kd [3]: 820 nM
19 | B2 | – | EC50 [3]: 160 nM
20 | B3 | – | Kd [3]: > 1200 nM
21 | B4 | – | Kd [3]: 2300 nM
